From patent US20200155602A1 (IMMATICS BIOTECHNOLOGIES, published 2020)
Where no end group is shown, it is not given here. [ ]: non-standard residue; d: D form. pS = N[C@@H](COP(=O)(O)O)C(=O)O

The binders below were run against T1, HLA-A*02:01 (human) (assay: UV-ligand exchange, anti-b2m ELISA; grade of peptide exchange yield (>10% = +; >20% = ++; >50 = +++; >75% = ++++)).
T1 construct: Peptide-receptive HLA-A*02:01 monomer obtained by UV cleavage of a UV-sensitive ligand; captured on streptavidin plates; also called peptide-receptive MHC molecules; MHC class I
From the text: Candidate peptides for T cell based therapies according to the present invention were further tested for their MHC binding capacity (affinity). The individual peptide-MHC complexes were produced by UV-ligand exchange, where a UV-sensitive peptide is cleaved upon UV-irradiation, and exchanged with the peptide of interest as analyzed. Only peptide candidates that can effectively bind and stabilize the peptide-receptive MHC molecules prevent dissociation of the MHC complexes. To determine the yield of the exchange reaction, an ELISA was performed based on the detection of the light chain (β2m) of stabilized MHC complexes. The assay was performed as generally described in Rodenko et al. (Rodenko et al., 2006).
96 well MAXISorp plates (NUNC) were coated over night with 2 ug/ml streptavidin in PBS at room temperature, washed 4× and blocked for 1 h at 37° C. in 2% BSA containing blocking buffer. Refolded HLA-A*02:01/MLA-001 monomers served as standards, covering the range of 15-500 ng/ml. Peptide-MHC monomers of the UV-exchange reaction were diluted 100-fold in blocking buffer. Samples were incubated for 1 h at 37° C., washed four times, incubated with 2 ug/ml HRP conjugated anti-β2m for 1 h at 37° C., washed again and detected with TMB solution that is stopped with […]. Absorption was measured at 450 nm. Candidate peptides that show a high exchange yield (preferably higher than 50%, most preferred higher than 75%) are generally preferred for a generation and production of antibodies or fragments thereof, and/or T cell receptors or fragments thereof, as they show sufficient avidity to the MHC molecules and prevent dissociation of the MHC complexes.

Row | peptide exchange yield [%] | Binder
1 | 50 to 75 | ALPEPSPAA
2 | > 75 | VLDEGLTSV
3 | > 75 | ALMDEINFMKM
4 | 50 to 75 | VLAENPDIFAV
5 | > 75 | TLLSEIAEL
6 | 50 to 75 | KILE[pS]LFV[pS]L [KILEJLFVJL]
7 | 20 to 50 | KILEMDDPRA
8 | 50 to 75 | LMAPAPSTV
9 | 20 to 50 | STASAITPSV
10 | > 75 | ALMAGCIQEA
11 | > 75 | MLFENMGAYTV
12 | 50 to 75 | YIDPYKLLPL
13 | > 75 | SLDGNPLAV
14 | > 75 | SLFPYVVLI
15 | > 75 | ALWGFFPVLL
16 | 50 to 75 | GLHQDFPSVVL
17 | > 75 | GLYGIKDDVFL
18 | 50 to 75 | QLIEKITQV
19 | > 75 | FLFPAFLTA
20 | 50 to 75 | SLQERQVFL
21 | > 75 | YVMESMTYL
22 | > 75 | AQLNIGNVLPV
23 | 20 to 50 | SLRAFLMPI
24 | 50 to 75 | ALEEANADLEV
25 | > 75 | QLLQYVYNL
26 | > 75 | AQLNLIWQL
27 | > 75 | TLNDGVVVQV
28 | > 75 | ALASAPTSV
29 | > 75 | ILFDEVLTFA
30 | 50 to 75 | VLYGDVEEL
